Like-named read-outs stand apart in the source and are kept apart here.
What was measured:
[1] = target: T1, Recombinant human TSLP-his (human, UniProt Q969D9 29-159); experiment: SPR, Biacore T200; protocol of Example 2
T1 construct: Prepared in-house; Amine-coupled to CM5 chip in SPR, loaded on APS sensors in Octet, biotin-labeled in the capture ELISA, unlabeled in the cell functional assays; also called human TSLP-his protein

human TSLP-Fc [2] = target: T2, human TSLP-Fc (human, biotin-labeled); experiment: competitive ELISA: antibody pre-mixed with biotin-labeled human TSLP-Fc; blocked binding to coated Tezepelumab
T2 construct: Prepared in-house; also called biotin-labeled human TSLP-Fc; TSLP-Fc-biotin

[3] = target: T1, Recombinant human TSLP-his; experiment: capture ELISA: antibody captured on anti-IgG Fc coat, biotin-labeled human TSLP-his detected with streptavidin-HRP
[4] = target: T3, Recombinant cynomolgus monkey TSLP-his (cynomolgus monkey); experiment: indirect ELISA on coated cynomolgus TSLP-his
T3 construct: Prepared in-house; Amine-coupled to CM5 chip in SPR, coated on plates in the indirect ELISA; also called cynomolgus TSLP; cynomolgus TSLP-his protein
T3 chain: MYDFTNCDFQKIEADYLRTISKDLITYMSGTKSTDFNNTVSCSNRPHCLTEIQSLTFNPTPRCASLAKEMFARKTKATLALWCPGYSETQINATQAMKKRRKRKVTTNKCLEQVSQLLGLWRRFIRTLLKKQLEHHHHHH

human TSLP-Fc [5] = target: T2, human TSLP-Fc; experiment: competitive ELISA: antibody pre-mixed with biotin-labeled human TSLP-Fc; blocked binding to coated Tezepelumab; remark: listed apart in the source
human TSLP-Fc [6] = target: T2, human TSLP-Fc; experiment: competitive ELISA: antibody pre-mixed with biotin-labeled human TSLP-Fc; blocked binding to coated human TSLPR-Fc/IL7Ra-Fc
human TSLP-Fc [7] = target: T2, human TSLP-Fc; experiment: cell-based ligand-blocking FACS: antibody pre-mixed with human TSLP-Fc; blocked binding to BAF3-3E6 cells expressing human TSLPR and IL7R
human TSLP-Fc [8] = target: T2, human TSLP-Fc; experiment: as above; remark: listed apart in the source
[9] = target: T3, Recombinant cynomolgus monkey TSLP-his; experiment: SPR, BIAcore; protocol of Example 2
[10] = target: T1, Recombinant human TSLP-his; experiment: SPR, BIAcore; protocol of Example 2
[11] = target: T1, Recombinant human TSLP-his; experiment: capture ELISA: antibody captured on anti-IgG Fc coat, biotin-labeled human TSLP-his detected with streptavidin-HRP; remark: listed apart in the source
human TSLP-Fc [12] = target: T2, human TSLP-Fc; experiment: competitive ELISA: antibody pre-mixed with biotin-labeled human TSLP-Fc; blocked binding to coated human TSLPR-Fc/IL7Ra-Fc; remark: listed apart in the source
[13] = target: T1, Recombinant human TSLP-his; experiment: SPR, Biacore T200; below the instrument limit, roughly calculated from the sensorgram
human TSLP-Fc [14] = target: T2, human TSLP-Fc; experiment: cell-based ligand-blocking FACS: antibody pre-mixed with human TSLP-Fc; blocked binding to BAF3-3E6 cells expressing human TSLPR and IL7R; lower plateau at MFI about 550 (partial blocking)
[15] = target: T3, Recombinant cynomolgus monkey TSLP-his; experiment: indirect ELISA on coated cynomolgus TSLP-his
human TSLP-Fc [16] = target: T2, human TSLP-Fc; experiment: competitive ELISA: antibody pre-mixed with biotin-labeled human TSLP-Fc; blocked binding to coated human TSLPR-Fc/IL7Ra-Fc; remark: listed apart in the source
[17] = target: T1, Recombinant human TSLP-his; experiment: SPR, Biacore T200; TSLP-his amine-coupled to CM5 chip, antibody as analyte; 1:1 Langmuir fit
[18] = target: T1, Recombinant human TSLP-his; experiment: capture ELISA: antibody captured on anti-IgG Fc coat, biotin-labeled human TSLP-his detected with streptavidin-HRP; remark: listed apart in the source
[19] = target: T3, Recombinant cynomolgus monkey TSLP-his; experiment: SPR, Biacore T200; cynomolgus TSLP-his amine-coupled to CM5 chip, antibody as analyte
human TSLP-Fc [20] = target: T2, human TSLP-Fc; experiment: competitive ELISA: antibody pre-mixed with biotin-labeled human TSLP-Fc; blocked binding to coated Tezepelumab; remark: listed apart in the source
human TSLP-Fc [21] = target: T2, human TSLP-Fc; experiment: cell-based ligand-blocking FACS: antibody pre-mixed with human TSLP-Fc; blocked binding to BAF3-3E6 cells expressing human TSLPR and IL7R; remark: listed apart in the source

B1: hu1C5F12E9-V14 (IgG4) (antibody)
heavy: not shown
light: DIQMTQSPSSLSASVGDRVTITCRPTENIYSYLAWYQQKPGKSPKLLIYFARTLAEGVPSRFSGSGSGTDFTLTISSLQPEDFATYYCQHHYGTPWTFGGGTKVEIKRTVAAPSVFIFPPSDEQLKSGTASVVCLLNNFYPREAKVQWKVDNALQSGNSQESVTEQDSKDSTYSLSSTLTLSKADYEKHKVYACEVTHQGLSSPVTKSFNRGEC
notes: also called huC5F12E9-V14
B1 was tested. Which Kd [1] did it give?
The Kd was less than 0.0956 nM.

What about the koff [1] of the same binder?
Its koff is less than 1e-05 s⁻¹.

What about the kon [1] of the same binder?
Its kon is 105000 M⁻¹ s⁻¹.

What about the IC50 (human TSLP-Fc [2]) of the same binder?
Its IC50 is 0.403 nM.

What about the EC50 [3] of the same binder?
Its EC50 is 0.169 nM.

What about the EC50 [4] of the same binder?
The EC50 was 0.151 nM.

What about the IC50 (human TSLP-Fc [5]) of the same binder?
Its IC50 is 0.909 nM.

And the IC50 (human TSLP-Fc [6])?
Its IC50 is 0.123 nM.

And the IC50 (human TSLP-Fc [7])?
Its IC50 is roughly 1.09 nM.

And the IC50 (human TSLP-Fc [8])?
Its IC50 is roughly 3.07 nM.

What about the Kd [9] of the same binder?
The Kd was less than 0.0322 nM.

And the koff [9]?
The koff was less than 1e-05 s⁻¹.

And the kon [9]?
Its kon is 311000 M⁻¹ s⁻¹.

What about the Kd [10] of the same binder?
The Kd was less than 0.061 nM.

And the koff [10]?
The koff was less than 1e-05 s⁻¹.

And the kon [10]?
The kon was 164000 M⁻¹ s⁻¹.

What about the EC50 [11] of the same binder?
Its EC50 is 0.102 nM.

What about the IC50 (human TSLP-Fc [12]) of the same binder?
Its IC50 is 0.958 nM.

What about the koff [13] of the same binder?
The koff was roughly 3.21e-06 s⁻¹.

B2: hu1C5F12E9-V14 (IgG1) (antibody)
heavy: not shown
light: B1 light
notes: Humanized, human IgG1/kappa
Which IC50 (human TSLP-Fc [5]) does the source give for B2 here?
Its IC50 is 0.806 nM.

And the IC50 (human TSLP-Fc [7])?
Its IC50 is roughly 1.14 nM.

What about the EC50 [11] of the same binder?
Its EC50 is 0.11 nM.

What about the IC50 (human TSLP-Fc [12]) of the same binder?
The IC50 was 0.758 nM.

B3: Mouse D1D8H9F7 (antibody, V domains shown)
VH: QVQLQQSGADLVRPGSSVKISCKTSGFAFSSYYMNWVKQRPGQGLEWIGQIYPGDGETNYNGKFKDKATLTADKSSSTVYMQLSSLTSEDSAVYFCARAGYSDYVYAMDYWGQGTSVTVSS
VL: EIVLTQSPALMAASPGEKVTIICSVSSSITSSNLHWYQQKSETSPKPWIYGTSNLASGVPVRFSGSGSGTSYSLTISSMEAEDAATYYCQQWSSFPLTFGSGTKLEIK
notes: Mouse hybridoma mAb
B3 was tested. Which IC50 (human TSLP-Fc [14]) did it give?
Its IC50 is 1.83 nM.

Does B3 bind [15]?
Result: no binding (tested: about 67 nM)

What about the IC50 (human TSLP-Fc [16]) of the same binder?
Its IC50 is 0.5 nM.

What about the Kd [17] of the same binder?
The Kd was 0.18 nM.

And the koff [17]?
Its koff is 3.09e-05 s⁻¹.

What about the kon [17] of the same binder?
The kon was 172000 M⁻¹ s⁻¹.

What about the EC50 [18] of the same binder?
The EC50 was 0.126 nM.

B4: Mouse D1C2H1H1 (antibody, V domains shown)
VH: QVTLKESGPGILQPSQTLSLTCSFSGFSLSTYGMGIGWIRLPSGKGLEWLASIWWDDNRYFNAALKSRLTISKDASKNQVFLKIASVDTADTATYYCARIEDGYYSYHSYWGQGTLVTVSA
VL: DIVLTQSPASLAVSLGQRATISCKASQSVDFDGDSYMNWFQQKPGQPPKLLIYAASNLVSGIPARFSGSGSGTDFTLNIHPVEEEDAATYYCQQIDEDPYTFGGGTKLEIE
notes: Mouse hybridoma mAb
How did the EC50 [15] turn out when B4 was run?
The EC50 was 4.18 nM.

And the IC50 (human TSLP-Fc [16])?
The IC50 was 0.114 nM.

What about the Kd [17] of the same binder?
The Kd was less than 0.0149 nM.

And the koff [17]?
The koff was less than 1e-05 s⁻¹.

And the kon [17]?
Its kon is 672000 M⁻¹ s⁻¹.

What about the Kd [19] of the same binder?
The Kd was 7.23 nM.

And the IC50 (human TSLP-Fc [20])?
Its IC50 is 0.12 nM.

What about the EC50 [18] of the same binder?
Its EC50 is 0.17 nM.

And the IC50 (human TSLP-Fc [21])?
The IC50 was 2.14 nM.
